This note sets out measurements from article PMC7570020, “The PIFs Redundantly Control Plant Defense Response against Botrytis cinerea in Arabidopsis”.

Data set [1] concerns the target T1, GST-PIF5 (Arabidopsis thaliana, UniProt Q84LH8 1-444).
T1 sequence: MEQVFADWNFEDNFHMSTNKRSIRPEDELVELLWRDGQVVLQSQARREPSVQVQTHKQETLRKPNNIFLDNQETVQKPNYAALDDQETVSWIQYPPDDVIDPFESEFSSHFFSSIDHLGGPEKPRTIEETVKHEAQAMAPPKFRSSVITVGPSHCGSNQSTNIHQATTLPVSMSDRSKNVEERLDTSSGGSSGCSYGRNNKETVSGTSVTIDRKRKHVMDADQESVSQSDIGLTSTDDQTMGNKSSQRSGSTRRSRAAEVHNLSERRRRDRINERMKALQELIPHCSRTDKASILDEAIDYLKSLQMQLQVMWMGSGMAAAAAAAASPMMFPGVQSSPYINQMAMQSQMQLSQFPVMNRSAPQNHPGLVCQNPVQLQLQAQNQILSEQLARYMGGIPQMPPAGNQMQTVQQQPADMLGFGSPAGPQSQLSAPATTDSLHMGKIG
The data set can be described thus: EMSA; Chemiluminescent EMSA Kit (Beyotime), manufacturer's protocol; buffer, salt, pH and temperature not stated. The following applies: protein: recombinant; tags: N-terminal GST (pGEX); chain copies: 2; label: 5' biotin; blunt. Background: Mobility shift assays separate free from complexed probe on a gel.

For data set [2], the target named is T2, GST-PIF4 bHLH (Arabidopsis thaliana, UniProt Q8W2F3 257-306).
T2 chain: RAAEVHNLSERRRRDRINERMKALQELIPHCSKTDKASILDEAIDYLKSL
Described as above. The following applies: protein: recombinant; tags: N-terminal GST (pGEX); chain copies: 2; label: 5' biotin; blunt.

Data set [3] has as its target T1, GST-PIF5. Briefly: competition; increasing unlabeled competitor against labeled N1; Chemiluminescent EMSA Kit (Beyotime), manufacturer's protocol; buffer, salt, pH and temperature not stated. The following applies: protein: recombinant; tags: N-terminal GST (pGEX); chain copies: 2; label: none; blunt.
In data set [4] the target is T2, GST-PIF4 bHLH. The description is as above. Particulars: protein: recombinant; tags: N-terminal GST (pGEX); chain copies: 2; label: none; blunt.

B1: ERF1 G-box probe (dsDNA)
DNA 1: GAGCCAAAAACTTTGAACACGTGCGGGATATCAAATAATCA
DNA 2: TGATTATTTGATATCCCGCACGTGTTCAAAGTTTTTGGCTC
Take B1: the binding result in data set [1] and in data set [2] was “binds” throughout.

B2: ERF1 competitor (dsDNA)
DNA 1: GAGCCAAAAACTTTGAACACGTGCGGGATATCAAATAATCA
DNA 2: TGATTATTTGATATCCCGCACGTGTTCAAAGTTTTTGGCTC
Consider B2, for which the binding result in data set [3] and in data set [4] was “binds” throughout.
